Where two headings read alike, the source gives them in different places.
Columns and labels:
StrepII-SUMO-DUX4-His6 [1] = molecular target: T1, StrepII-SUMO-DUX4-His6 (Homo sapiens, UniProt Q9UBX2 1-424); assay: TR-FRET competition
PROP1-cMyc-DDK [2] = molecular target: T2, PROP1-cMyc-DDK (UniProt O75360 1-226); assay: TR-FRET competition
StrepII-SUMO-DUX4-His6 [3] = molecular target: T1, StrepII-SUMO-DUX4-His6; assay: TR-FRET competition; remark: listed apart in the source
StrepII-SUMO-DUX4-His6 [4] = molecular target: T1, StrepII-SUMO-DUX4-His6; assay: EMSA
StrepII-SUMO-DUX4-His6 [5] = molecular target: T1, StrepII-SUMO-DUX4-His6; assay: TR-FRET competition; remark: listed apart in the source
StrepII-SUMO-DUX4-His6 [6] = molecular target: T1, StrepII-SUMO-DUX4-His6; assay: TR-FRET competition; remark: listed apart in the source
StrepII-SUMO-DUX4-His6 [7] = molecular target: T1, StrepII-SUMO-DUX4-His6; assay: TR-FRET competition; remark: listed apart in the source
StrepII-SUMO-DUX4-His6 [8] = molecular target: T1, StrepII-SUMO-DUX4-His6; assay: TR-FRET competition; remark: listed apart in the source
StrepII-SUMO-DUX4-His6 [9] = molecular target: T1, StrepII-SUMO-DUX4-His6; assay: TR-FRET competition; remark: listed apart in the source
StrepII-SUMO-DUX4-His6 [10] = molecular target: T1, StrepII-SUMO-DUX4-His6; assay: TR-FRET competition; remark: listed apart in the source
StrepII-SUMO-DUX4-His6 [11] = molecular target: T1, StrepII-SUMO-DUX4-His6; assay: TR-FRET competition; remark: listed apart in the source
StrepII-SUMO-DUX4-His6 [12] = molecular target: T1, StrepII-SUMO-DUX4-His6; assay: TR-FRET competition; remark: listed apart in the source
StrepII-SUMO-DUX4-His6 [13] = molecular target: T1, StrepII-SUMO-DUX4-His6; assay: TR-FRET competition; remark: listed apart in the source
PROP1-cMyc-DDK [14] = molecular target: T2, PROP1-cMyc-DDK; assay: TR-FRET competition; remark: listed apart in the source
StrepII-SUMO-DUX4-His6 [15] = molecular target: T1, StrepII-SUMO-DUX4-His6; assay: fluorescence polarization
StrepII-SUMO-DUX4-His6 [16] = molecular target: T1, StrepII-SUMO-DUX4-His6; assay: TR-FRET competition; remark: listed apart in the source
StrepII-SUMO-DUX4-His6 [17] = molecular target: T1, StrepII-SUMO-DUX4-His6; assay: TR-FRET competition; remark: listed apart in the source
PROP1-cMyc-DDK [18] = molecular target: T2, PROP1-cMyc-DDK; assay: TR-FRET competition; remark: listed apart in the source

T2 sequence (O75360 whole entry): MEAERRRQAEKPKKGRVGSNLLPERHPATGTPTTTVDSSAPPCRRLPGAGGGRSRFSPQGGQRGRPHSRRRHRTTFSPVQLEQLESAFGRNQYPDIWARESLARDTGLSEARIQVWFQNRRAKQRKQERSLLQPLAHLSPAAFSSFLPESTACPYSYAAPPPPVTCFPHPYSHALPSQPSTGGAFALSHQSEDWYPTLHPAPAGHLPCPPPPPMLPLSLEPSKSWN
T1 sequence (Q9UBX2 whole entry): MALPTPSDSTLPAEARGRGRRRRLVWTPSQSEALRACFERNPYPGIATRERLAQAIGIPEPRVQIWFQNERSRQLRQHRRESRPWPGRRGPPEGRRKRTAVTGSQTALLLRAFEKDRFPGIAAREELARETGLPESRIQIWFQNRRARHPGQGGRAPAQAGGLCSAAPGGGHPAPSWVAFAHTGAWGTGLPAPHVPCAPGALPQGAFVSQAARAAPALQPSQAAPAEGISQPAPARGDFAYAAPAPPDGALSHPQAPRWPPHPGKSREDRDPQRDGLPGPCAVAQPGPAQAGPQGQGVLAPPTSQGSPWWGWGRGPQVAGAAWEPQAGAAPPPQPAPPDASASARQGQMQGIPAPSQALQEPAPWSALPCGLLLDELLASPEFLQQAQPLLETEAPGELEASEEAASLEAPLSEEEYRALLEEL

GCTAATCTAATCAACCGCAGGTTGATTAGATTAGC (structured_DNA) [DUX4_TCT]
binding signal (StrepII-SUMO-DUX4-His6 [1]): ~3 fold higher IC50 than DUX4_CCT

GCTAATTTAATTAACCGCAGGTTAATTAAATTAGC (structured_DNA) [PROP1 aptamer]
binding result (PROP1-cMyc-DDK [2]): binds

GCTAACCTAATCAACCGCAGGTTGATTAGGTTAGC (structured_DNA) [DUX4_CCT]
binding result (StrepII-SUMO-DUX4-His6 [3]): binds

AGCTAACCTAATCAACCGCAGGTTGATTAGCCCGTTAGC (structured_DNA) [DUX4_CTT_R7CCC as in T1 for S3B-C]
binding result (StrepII-SUMO-DUX4-His6 [4]): binds

GCTAATCTAATCAACCGCAGGTTGATTAGTTTATTAGC (structured_DNA) [DUX4_TCT_R7TTT]
binding result (StrepII-SUMO-DUX4-His6 [5]): binds

GCTAATCTAATCAACCGCAGGTTGATTAGCCATTAGC (structured_DNA) [DUX4_TCT_R7CC]
binding result (StrepII-SUMO-DUX4-His6 [6]): binds

GCTAATCTAACCTCAACCGCAGGTTGATTAGATTAGC (structured_DNA) [DUX4_TCT_F8CC]
binding result (StrepII-SUMO-DUX4-His6 [7]): binds

GCTAATCTAACTTCAACCGCAGGTTGATTAGATTAGC (structured_DNA) [DUX4_TCT_F8CT]
binding result (StrepII-SUMO-DUX4-His6 [8]): binds

GCTAATCTAACTCAACCGCAGGTTGATTAGATTAGC (structured_DNA) [DUX4_TCT_F8C]
binding result (StrepII-SUMO-DUX4-His6 [9]): binds

GCTAATCTAATTCAACCGCAGGTTGATTAGATTAGC (structured_DNA) [DUX4_TCT_F8T]
binding result (StrepII-SUMO-DUX4-His6 [10]): binds

GCTAATCTAAGTCAACCGCAGGTTGATTAGATTAGC (structured_DNA) [DUX4_TCT_F8G]
binding result (StrepII-SUMO-DUX4-His6 [10]): binds

GCTAATCTAACCCCTCAACCGCAGGTTGATTAGATTAGC (structured_DNA) [DUX4_TCT_F8CCCC]
binding result (StrepII-SUMO-DUX4-His6 [8]): binds

GCATAAACTTAATCAAGACCAGGTCATTGATTAACGCTCGTTTGG (structured_DNA) [SELEX#1]
binding result (StrepII-SUMO-DUX4-His6 [11]): binds

GCTAATCTAATCAACCGCAGGTTGATTAGCATTAGC (structured_DNA) [DUX4_TCT_R7C]
binding result (StrepII-SUMO-DUX4-His6 [12]): binds

TGGTGAAGCGCAAGGAAACTTAATCACAAGGTGATTAATTGTTTG (structured_DNA) [SELEX#2]
binding result (StrepII-SUMO-DUX4-His6 [11]): binds

GCTAACTTAACTCAACCGCAGGTTGATTAACCCGTTAGC (structured_DNA) [DUX4_CTT_F8C_R7CCC]
binding signal (StrepII-SUMO-DUX4-His6 [13]): ~2 fold lower affinity than single-loop DUX4_CTT_R7CCC | binding result (PROP1-cMyc-DDK [14]): binds

GCTAATCTAATCAACCGCAGGTTGATTAGCCCCCATTAGC (structured_DNA) [DUX4_TCT_R7CCCCC]
binding result (StrepII-SUMO-DUX4-His6 [12]): binds

CTAGATTAACCCGTTTACCAAGCGATGGAAACTTAATCTCCATGG (structured_DNA) [SELEX#5]
binding result (StrepII-SUMO-DUX4-His6 [11]): binds

GCTAATCTAACCCTCAACCGCAGGTTGATTAGATTAGC (structured_DNA) [DUX4_TCT_F8CCC]
binding result (StrepII-SUMO-DUX4-His6 [8]): binds

GCTAATCTAATCAACCGCAGGTTGATTAGCCCCATTAGC (structured_DNA) [DUX4_TCT_R7CCCC]
binding result (StrepII-SUMO-DUX4-His6 [12]): binds

GCTAACTTAATCAACCGCAGGTTGATTAGCCCATTAGC (structured_DNA) [Kd aptamer as printed in text and Fig 7]
Kd (StrepII-SUMO-DUX4-His6 [15]): ~20 nM

GCTAATCTAATCAACCGCAGGTTGATTAGCCCATTAGC (structured_DNA) [DUX4_TCT_R7CCC]
binding signal (StrepII-SUMO-DUX4-His6 [16]): ~10 fold affinity vs loop-free template

GCTAACTTAATCAACCGCAGGTTGATTAACCCGTTAGC (structured_DNA) [DUX4_CTT_R7CCC (DUX4_CTT_loop)]
binding signal (StrepII-SUMO-DUX4-His6 [17]): ~21 fold IC50 gain vs DUX4_CTT | binding signal (StrepII-SUMO-DUX4-His6 [13]): ~20 fold affinity vs backbone | binding signal (PROP1-cMyc-DDK [18]): ~5 fold IC50 gain vs DUX4_CTT
